± gives the standard deviation of the averaged measurements.
B1: library; numbered along this chain (parent)
chain: MNIQIGELAKRTACPVVTIRFYEQEGLLPPPGRSRGNFRLYGEEHVERLQFIRHCRSLDMPLSDVRTLLSYRKRPDQDCGEVNMLLDEHIRQVESRIGALLELKHHLVELREACSGARPAQSCGILQGLSDCVCDTRGTTAHPSD

Legend:
[1] = variants of: B1; experiment: sfGFP reporter fluorescence (15 h) (µM FITC); higher = higher leak; conditions: library round: Round 0; ligand: none
In short: (§1)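 Linear PbrR templates were made by PCR, normalized to 5 nM with an Echo, and expressed in BL21 Star (DE3) PANOx-SP extract with the pPbrR-sfGFP reporter plasmid and 30 μg/mL GamS. Echo-assembled 1 μL reactions held 1 µM lead chloride, 30 µM zinc acetate or no metal and were incubated 15 hr at 30 °C. Endpoint sfGFP fluorescence was read on a Synergy Neo2 and expressed as µM FITC using standard curves. Up to three biological replicates were run.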

[2] = variants of: B1; experiment: sfGFP reporter fluorescence (15 h) (µM FITC); higher = stronger transcriptional activation; conditions: library round: Round 0
In short: as §1

Variant	sfGFP reporter fluorescence [1]	sfGFP reporter fluorescence ([2]; ligand: 1 µM Pb)	sfGFP reporter fluorescence ([2]; ligand: 30 µM Zn)
MNIQIGELAKRTACPVVTIRFYEQEGLLPPPGRSRGNFRLYGEEHVERLQFIRHCRSLDMPLSDVRTLLSYRKRPDQDCGEVNMLLDEHIRQVESRIGALLELKHHLVELREACSGARPAQSCGILQKLSDCVCDTRGTTAHPSD [G128K]	0.122 ± 0.0031	0.192 ± 0.007	3.05 ± 0.22
MNIQIGELAKRTACPVVTIRFYEQEGLLPPPGRSRGNFRLYGEEHVERLQFIRHCRSLDMPLSDVRTLLSYRKRPDQDCGEVNMLLDEHIRQVESRIGALLELKHHLVELREACSGARPAQSCGILQFLSDCVCDTRGTTAHPSD [G128F]	0.0671 ± 0.0047	0.199 ± 0.023	1.2 ± 0.12
MNIQIGELAKRTACPVVTIRFYEQEGLLPPPGRSRGNFRLYGEEHVERLQFIRHCRSLDMPLSDVRTLLSYRKRPDQDCGEVNMLLDEHIRQVESRIGALLELKHHLVELREACSGARPAQSCGILQDLSDCVCDTRGTTAHPSD [G128D]	0.0603 ± 0.0023	0.0607 ± 0.00078	0.108 ± 0.0029
MNIQIGELAKRTACPVVTIRFYEQEGLLPPPGRSRGNFRLYGEEHVERLQFIRHCRSLDMPLSDVRTLLSYRKRPDQDCGEVNMLLDEHIRQVESRIGALLELKHHLVELREACSGARPAQSCGILQCLSDCVCDTRGTTAHPSD [G128C]	0.0629 ± 0.0018	0.0964 ± 0.0036	0.16 ± 0.008
MNIQIGELAKRTACPVVTIRFYEQEGLLPPPGRSRGNFRLYGEEHVERLQFIRHCRSLDMPLSDVRTLLSYRKRPDQDCGEVNMLLDEHIRQVESRIGALLELKHHLVELREACSGARPAQSCGILQILSDCVCDTRGTTAHPSD [G128I]	0.066 ± 0.0021	0.183 ± 0.015	1.68 ± 0.19
MNIQIGELAKRTACPVVTIRFYEQEGLLPPPGRSRGNFRLYGEEHVERLQFIRHCRSLDMPLSDVRTLLSYRKRPDQDCGEVNMLLDEHIRQVESRIGALLELKHHLVELREACSGARPAQSCGILQALSDCVCDTRGTTAHPSD [G128A]	0.09694 ± 0.00026	0.211 ± 0.0065	2.53 ± 0.17
MNIQIGELAKRTACPVVTIRFYEQEGLLPPPGRSRGNFRLYGEEHVERLQFIRHCRSLDMPLSDVRTLLSYRKRPDQDCGEVNMLLDEHIRQVESRIGALLELKHHLVELREACSGARPAQSCGILQELSDCVCDTRGTTAHPSD [G128E]	0.0599 ± 0.00078	0.0713 ± 0.0013	0.535 ± 0.051
MNIQIGELAKRTACPVVTIRFYEQEGLLPPPGRSRGNFRLYGEEHVERLQFIRHCRSLDMPLSDVRTLLSYRKRPDQDCGEVNMLLDEHIRQVESRIGALLELKHHLVELREACSGARPAQSCGILQHLSDCVCDTRGTTAHPSD [G128H]	0.0608 ± 0.0021	0.0848 ± 0.0034	0.25 ± 0.012
MNIQIGELAKRTACPVVTIRFYEQEGLLPPPGRSRGNFRLYGEEHVERLQFIRHCRSLDMPLSDVRTLLSYRKRPDQDCGEVNMLLDEHIRQVESRIGALLELKHHLVELREACSGARPAQSCGILAGLSDCVCDTRGTTAHPSD [Q127A]	0.0724 ± 0.0018	0.0793 ± 0.0049	0.299 ± 0.047
MNIQIGELAKRTACPVVTIRFYEQEGLLPPPGRSRGNFRLYGEEHVERLQFIRHCRSLDMPLSDVRTLLSYRKRPDQDCGEVNMLLDEHIRQVESRIGALLELKHHLVELREACSGARPAQSCGIWQGLSDCVCDTRGTTAHPSD [L126W]	0.0586	0.0594 ± 0.0026	0.0612
MNIQIGELAKRTACPVVTIRFYEQEGLLPPPGRSRGNFRLYGEEHVERLQFIRHCRSLDMPLSDVRTLLSYRKRPDQDCGEVNMLLDEHIRQVESRIGALLELKHHLVELREACSGARPAQSCGISQGLSDCVCDTRGTTAHPSD [L126S]	0.0592 ± 0.0018	0.0585 ± 0.00078	0.05443 ± 0.00026
MNIQIGELAKRTACPVVTIRFYEQEGLLPPPGRSRGNFRLYGEEHVERLQFIRHCRSLDMPLSDVRTLLSYRKRPDQDCGEVNMLLDEHIRQVESRIGALLELKHHLVELREACSGARPAQSCGIYQGLSDCVCDTRGTTAHPSD [L126Y]	0.0596 ± 0.0018	0.05937 ± 0.00052	0.0561 ± 0.0021
MNIQIGELAKRTACPVVTIRFYEQEGLLPPPGRSRGNFRLYGEEHVERLQFIRHCRSLDMPLSDVRTLLSYRKRPDQDCGEVNMLLDEHIRQVESRIGALLELKHHLVELREACSGARPAQSCGITQGLSDCVCDTRGTTAHPSD [L126T]	0.0596 ± 0.0018	0.0579 ± 0.0036	0.057 ± 0.0029
MNIQIGELAKRTACPVVTIRFYEQEGLLPPPGRSRGNFRLYGEEHVERLQFIRHCRSLDMPLSDVRTLLSYRKRPDQDCGEVNMLLDEHIRQVESRIGALLELKHHLVELREACSGARPAQSCGIVQGLSDCVCDTRGTTAHPSD [L126V]	0.0555 ± 0.0013	0.0581 ± 0.00078	0.0586

From the supplement of paper PMC12783771
